Source: patent CN113388031A (SHANGHAI INSTITUTE FOR ADVANCED STUDY OF ZHEJIANG UNIV, dated 2021)

Target: 新冠病毒RBD蛋白 (SARS-CoV-2 spike receptor binding domain, expressed and purified) (SARS-CoV-2, UniProt P0DTC2 319-541)

B1: 单克隆抗体35B5 (monoclonal antibody 35B5) (antibody, V domains shown, not shown: large carriers)
VH: QVQLLESGGGLVQPGRSLRLSCAASGFTFDDYAMHWVRQAPGKGLEWVSGVSWNSGTIGYADSVKGRFTISRDNAKNSLYLHMRSLRAEDTALYYCAKAVEMVRGLMGLGADPEYGMDVWGQGTTVTVSS
VL: not shown
B1 was tested, and the Kd was 2.19 pM.
